By Kd is commonly meant the concentration at which binding is half-saturated. A higher Kd goes with weaker binding.

The values below come from article doi:10.1101/2024.09.22.614354 (bioRxiv, 2024).

Where two headings read alike, the source gives them in different places.

Assay in all cases: fluorescence polarisation
(Polarisation of emitted light reports the rotation of a fluorescent probe.)

In assay [1] the target is T1, wild type Rb pocket domain (Rb^P) (human, UniProt P06400 380-788).
T1 sequence: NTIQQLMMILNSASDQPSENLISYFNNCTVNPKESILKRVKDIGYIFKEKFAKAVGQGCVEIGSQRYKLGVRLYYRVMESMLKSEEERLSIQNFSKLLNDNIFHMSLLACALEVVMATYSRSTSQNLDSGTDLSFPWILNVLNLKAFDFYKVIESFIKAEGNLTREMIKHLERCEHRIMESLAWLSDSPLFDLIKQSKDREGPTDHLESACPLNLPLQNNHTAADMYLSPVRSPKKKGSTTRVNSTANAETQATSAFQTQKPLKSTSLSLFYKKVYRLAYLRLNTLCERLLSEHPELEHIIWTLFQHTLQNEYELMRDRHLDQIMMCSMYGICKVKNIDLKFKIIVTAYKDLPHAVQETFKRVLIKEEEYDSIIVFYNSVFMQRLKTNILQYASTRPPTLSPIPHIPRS

Assay [2] has as its target T2, Rb^P I703F (human, UniProt P06400 380-788, I703F).
T2 sequence: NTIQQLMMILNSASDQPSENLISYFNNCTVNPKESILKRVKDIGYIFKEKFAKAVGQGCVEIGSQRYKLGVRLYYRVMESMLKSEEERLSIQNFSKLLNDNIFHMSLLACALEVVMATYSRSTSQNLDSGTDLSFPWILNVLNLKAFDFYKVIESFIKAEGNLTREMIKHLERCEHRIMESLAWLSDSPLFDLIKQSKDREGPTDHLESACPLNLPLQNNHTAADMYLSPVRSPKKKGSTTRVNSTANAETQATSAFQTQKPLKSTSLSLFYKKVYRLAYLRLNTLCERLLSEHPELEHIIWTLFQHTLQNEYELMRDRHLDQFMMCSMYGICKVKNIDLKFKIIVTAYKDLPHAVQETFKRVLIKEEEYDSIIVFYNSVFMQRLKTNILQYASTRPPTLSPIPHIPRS

Assay [3] has as its target T3, Rb^P M704V (human, UniProt P06400 380-788, M704V).
T3 sequence: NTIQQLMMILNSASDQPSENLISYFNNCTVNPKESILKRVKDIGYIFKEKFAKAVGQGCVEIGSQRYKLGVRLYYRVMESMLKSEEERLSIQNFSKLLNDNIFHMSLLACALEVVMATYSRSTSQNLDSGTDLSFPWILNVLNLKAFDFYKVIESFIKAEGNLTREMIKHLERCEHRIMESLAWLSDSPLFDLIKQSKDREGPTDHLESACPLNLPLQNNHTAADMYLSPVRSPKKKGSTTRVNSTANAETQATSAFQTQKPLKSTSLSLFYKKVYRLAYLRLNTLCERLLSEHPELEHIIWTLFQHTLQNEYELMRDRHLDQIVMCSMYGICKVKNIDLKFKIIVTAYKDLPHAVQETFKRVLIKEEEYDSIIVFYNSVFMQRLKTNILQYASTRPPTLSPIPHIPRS

In assay [4] the target is T4, Rb^P E554K (human, UniProt P06400 380-788, E554K).
T4 sequence: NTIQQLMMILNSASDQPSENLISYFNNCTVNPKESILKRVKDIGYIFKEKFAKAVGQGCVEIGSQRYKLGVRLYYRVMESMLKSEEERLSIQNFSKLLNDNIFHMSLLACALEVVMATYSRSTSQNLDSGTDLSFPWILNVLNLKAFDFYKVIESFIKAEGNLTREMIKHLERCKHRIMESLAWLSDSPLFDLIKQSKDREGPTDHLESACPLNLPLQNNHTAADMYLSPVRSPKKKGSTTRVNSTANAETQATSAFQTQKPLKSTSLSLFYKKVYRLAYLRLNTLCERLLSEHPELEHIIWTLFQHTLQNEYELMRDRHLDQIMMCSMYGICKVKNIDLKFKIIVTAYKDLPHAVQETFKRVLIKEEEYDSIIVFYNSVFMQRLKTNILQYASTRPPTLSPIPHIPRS

For assay [5], the target named is T5, Rb^P S751Y (human, UniProt P06400 380-788, S751Y).
T5 sequence: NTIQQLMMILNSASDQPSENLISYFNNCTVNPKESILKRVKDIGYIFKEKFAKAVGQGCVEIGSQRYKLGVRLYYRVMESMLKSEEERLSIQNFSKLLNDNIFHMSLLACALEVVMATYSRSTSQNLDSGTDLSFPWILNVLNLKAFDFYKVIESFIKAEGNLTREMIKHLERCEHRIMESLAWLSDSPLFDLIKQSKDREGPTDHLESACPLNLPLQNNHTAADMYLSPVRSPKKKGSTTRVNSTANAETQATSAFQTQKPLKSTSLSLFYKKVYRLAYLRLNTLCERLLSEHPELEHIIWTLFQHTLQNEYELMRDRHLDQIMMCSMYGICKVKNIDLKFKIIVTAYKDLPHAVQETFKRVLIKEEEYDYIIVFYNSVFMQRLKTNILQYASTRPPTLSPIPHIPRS

The target of assay [6] is T1, wild type Rb pocket domain (Rb^P). This is another data set of the same source.

B1: TMR-E7^LxCxE (LxCxE peptide of the E7 oncoprotein from HPV, TMR-labeled) (peptide)
peptide: DLYCYEQLN
modifications: not fully specified; TMR fluorescent label (TMR-E7^LxCxE)
Turning to B1, the Kd in assay [1] amounted to 7 nM; in assay [2] it was 53 nM; in assay [3], 14 nM; in assay [4] it was 24 nM; in assay [5], 12 nM; in assay [6], 5 nM.
